Results taken from PMC5629210.

Target: SRGAP1 (UniProt Q7Z6B7)
Assay: GFP-trap of SRGAP1-GFP, blot for cortactin-mCherry
Details: reference: wild type cortactin-mCherry; sites Y421,Y470,Y486

binding against the reference: stronger
Substance: cortactin (from UniProt Q14247) 3YF cortactin-mCherry
